Results reported in patent US20040121386.

How the values were obtained:
[1] = molecular target: unactive JNK1 (Upstate, Inc.)

B1: His-tagged MKK7γ1 (protein)
chain: AASSLEQKLSRLEAKLKQENREARRRIDLNLDISPQRPRPIIVITLSPAPAPSQRAALQLPLANDGGSRSPSSESSPQHPTPPARPRHMLGLPSTLFTPRSMESIEIDQKLQEIMKQTGYPTIGGQRYQAEINDLENLGEMGSGTCGQVWKMRFRKTGHVIAVKQMRRSGNKEENKRILMDLDVVLKSHDCPYIVQCFGTFITNTDVFIAMELMGTCAEKLKKRMQGPIPERILGKMTVAIVKALYYLKEKHGVIHRDVKPSNILLDERGQIKLCDFGISGRLVDSKAKTRSAGCAAYMAPERIDPPDPTKPDYDIRADVWSLGISLVELATGQFPYKNCKTDFEVLTKVLQEEPPLLPGHMGFSGDFQSFVKDCLTKDHRKRPKYNKLLEHSFIKRYETLEVDVASWFKDVMAKTESPRTSGVLSQPHLPFFR
phosphorylation in a two-step cascade kinase assay (γ-32P-ATP, SDS/PAGE, autoradiography) (unactive p38): MKK7γ1 was unable to phosphorylate p38 | phosphorylation in a two-step cascade kinase assay (γ-32P-ATP, SDS/PAGE, autoradiography) [1]: in turn was able to phosphorylate JNK1
